Source: US9644205B2, “Synthetic promoter for modulating gene expression” (The Regents of the University of California, priority 2012, dated 2017)

Legend:
[1] = test system: PANC-1; assay: relative CAT expression in PANC-1 cells; assay type: cell-based, human; conditions: PANC-1 (high PDX-1); compared to RIP and HIP 1400
Description: FIG. 4 is a plot of the assay of the relative CAT expression being driven by BL-1 promoter compared to RIP and HIP 1400 promoter constructs in human pancreas cancer cell line, PANC-1, which have high expression of PDX-1, and benign human pancreatic ductal epithelial cell line HPDE, which have no expression of PDX-1 and are a negative control cell line.
(§1) In our methodological approach, activity and specificity of BLs were determined by CAT and mCherry assays in PDX-1+PC and HEK293 cell lines vs PDX-1—human pancreatic ductal epithelial (HPDE) cells. […] Cytotoxicity was determined by MTS assay. 1M PANC-1 cells were injected ip into 65 SCID mice; two weeks later, mice received BL1-vTK, RIP-vTK, CMV-vTK, or pVAX1 empty vector control (35 ug liposomal DNA/mouse/tail vein followed by two weeks of GCV (40 mg/kg, ip, bid; N=15/group). Glucose levels were measured on days 14 and 60 after treatment. Tumor volume was measured in each mouse. Statistical analysis was performed via paired T test; p<0.05=significant.

[2] = test system: PDX-1 stably expressing PC and HEK cells; assay: CAT and mCherry reporter assays in PDX-1+ PC and HEK293 cell lines; assay type: cell-based, human
Description: as §1

[3] = test system: Beta TC-6 cells; assay: CAT assay for promoter activity in Beta TC-6 cells; assay type: cell-based, mouse; conditions: compared to human insulin promoter fragments
Description: FIG. 2 is a plot of the CAT assay for HIP activity in Beta TC-6 cells.
FIG. 3 is a plot of the CAT assay for HIP promoter construct expression activity BL promoter construct expression activity in Beta TC-6 cells.
as §1

[4] = test system: HPDE cells; assay: CAT expression in HPDE cells (PDX-1 negative, PDX-1 co-transfection dose curve); assay type: cell-based, human
Description: FIG. 7 is a plot of the assay of the BL-CAT driving CAT expression in response to increasing doses of PDX-1 in human pancreatic ductal epithelial cells, which have very low expression of PDX-1.
FIG. 8 is a plot of another assay of the BL-CAT driving CAT expression in response to increasing doses of PDX-1 in human pancreatic ductal epithelial cells, which have very low expression of PDX-1.
as §1

[5] = test system: MIA PaCa2; assay: relative CAT expression in MIA PaCa2 vs MIA PaCa2 PDX-1 cells; assay type: cell-based, human; conditions: MIA PaCa2 (very low PDX-1) vs MIA PaCa2 stably transfected with PDX-1; compared to RIP and three HIP fragments
Text: FIG. 5 is a plot of the assay of the relative CAT expression being driven by BL-1 promoter compared to RIP and three HIP fragments in human pancreas cancer cell line, MIA PaCa2, which have very low PDX-1 expression vs MIA PaCa2 cells stably transfected with PDX-1.

[6] = test system: human embryonic kidney cell line 293 stably transfected with PDX-1 or mutated PDX-1 P47D; assay: relative CAT expression in 293 PDX-1 vs 293 P47D cells; assay type: cell-based; conditions: 293 stably transfected with PDX-1 or PDX-1 P47D; compared to RIP and three HIP fragments
Text: FIG. 6 is a plot of the assay of the relative CAT expression being driven by BL-1 promoter compared to RIP and three HIP fragments in human embryonic kidney cell line 293, (which have no PDX-1 expression), stably transfected with PDX-1 or mutated PDX-1 P47D.

B1: BL-1: synthetic 550 bp promoter, SEQ ID NO: 1; three repeated C2/E2/G2/A3/CRE1 and three repeated GG2/A2/C1/E1/A1 motifs (nucleic acid)
DNA: GACAGCAGCGCAAAGAGCCCCGCCCTGCAGCCTCCAGCTCTCCTGGTCTAATGTGGAAAGTGGCCCAGGTGAGGGCTTTGCTCTCCTGGAGACATTTGCCCCCAGCTGTGAGCAGGGACAGGTCTGGCCACCGGGCCCCTGGTTAAGACTCTAATGACCCGCTGGTCCCAGGGACAGGTCTGGCCACCGGGCCCCTGGTTAAGACTCTAATGACCCGCTGGTCCCAGGGACAGGTCTGGCCACCGGGCCCCTGGTTAAGACTCTAATGACCCGCTGGTCCGGAAATGGTCCGGAAATTGCAGCCTCAGCCCCCAGCCATCTGCCGACCCCCCCACCCCAGGCCCTAATGGGCGGAAATGGTCCGGAAATTGCAGCCTCAGCCCCCAGCCATCTGCCGACCCCCCCACCCCAGGCCCTAATGGGCGGAAATGGTCCGGAAATTGCAGCCTCAGCCCCCAGCCATCTGCCGACCCCCCCACCCCAGGCCCTAATGGGCGGTAGGGGAGATGGGCTCTGAGACTATAAAGCCAGCGGGGGCCCAGCAGCCCTC
[1]
  relative CAT expression: to a far greater degree than HIP and RIP
[2]; among the BL promoters, CAT and mCherry assays
  activity of expressing reporter genes: highest activity
[2]; vs CMV-driven expression
  CAT and mCherry reporter expression: equal to CMV-driven expression
[2]; vs RIP-driven expression, p<0.05
  CAT and mCherry reporter expression: significantly greater than RIP-driven expression
[3]
  expression of CAT: equal to or better than human insulin promoter fragments
[4]; HPDE cells, co-transfection of PDX-1
  CAT expression in response to increasing doses of PDX-1: dose dependent manner
[4]; PDX-1-negative cell lines
  CAT expression: No CAT expression was detected
[5]
  relative CAT expression: more effective than RIP or HIP
[6]
  relative CAT expression: far more effective than RIP or HIP
